The values below come from the DeepSol protein solubility set.

A short description of the data set: soluble on expression in E. coli; label from the status in PepcDB or PDB records.
For the sequence “MPNFWALPPEINSTRIYLGPGSGPILAAAQGWNALASELEKTKVGLQSALDTLLESYRGQSSQALIQQTLPYVQWLTTTAEHAHKTAIQLTAAANAYEQARAAMVPPAMVRANRVQTTVLKAINWFGQFSTRIADKEADYEQMWFQDALVMENYWEAVQEAIQSTSHFEDPPEMADDYDEAWMLNTVFDYHNENAKEEVIHLVPDVNKERGPIELVTKVDKEGTIRLVYDGEPTFSYKEHPKF”, the “soluble on expression in E. coli” value was “not soluble”.

As for “MPNTADQVDPLLASLSHFVDHTDLLAEHTMNAVEWEAVEVLMPRILRGKSKEDVKQLLLAEIDGMSKKRLDAVLAGETLEESSSSEDEEEQVIGSAGESEKSESPEIPEPEAKMEEQAVEAAEASEASDDGREDGEIRDDQGNTTSTPPDPGSPKSPEKGEAEQLDTDEEIDRLLEEDLEDFL”, the “soluble on expression in E. coli” value is recorded as “soluble”. As for “MPPATNNSREEKEEETTDLSAGKGDCGIKAAATIYVNCELLGGAKKRKKKVYIIPKKNNISQRKSSSPSPKYFKIDENGKISRLPTGIPTVSIQREAFMTQPTTLRKMSQHPCR”, the “soluble on expression in E. coli” value was “soluble”.

As to “MPPDEIEIEPVRQSSDKMLYCEAESPPTVEKVKPARENSETDLEIEDDEKFFTTGQKELYLEACKLMGVVPVSYFIRNMEESYVNLNHHGLGPRGTKAIAIALVSNMAVTKLELEDNCIMEEGVLSLVEMLQENYYLQEMNISNNHLGLEGARIISDFFERNSSSIWSLELSGNDFKEDSAALLCQALSTNYQIKKLDLSHNQFSDVGGEHLGQMLAINVGLTSLDLSWNNFHTRGAVALCNGLRGNVTLTKLDLSMNGFGNEVALALGEVLRLNRCLVYLDIGGNDIGNEGASKISKGLESNESLRVLKLFLNPINMDGAILLILAIKRNPKSRMEELDISNVLVSEQFMKTLDGVYAVHPQLDVVFKAVQGLSPKKTIFLLTNPMKLIQSYADQHKITIVDFFKSLNPTGTMKMSVDEFQKVMIEQNKVPLNQYQVREVIKKLDEKTGMVNFSFLNTMKP”, the “soluble on expression in E. coli” value is on record as “soluble”. For “MPPFKRTKIVATLGPATDDKEVIRALAEAGADVFRLNFSHGAPEDHRRRVGWVREVAEELGRTLAVLQDLQGPKIRVGRFREGQVLLRPGQRFVLTAEPVEGDEHRVSVSYKGLPEDVSPGQILLLDDGRIRLKVLEVRSPEILTEVEVGGVLSNNKGINIPGADLSIPALSEKDIQDLALGAELGVDWVAVSFVRTRDDLLLARHYLSRYGSKARLMAKIEKPSAVARFEEILEEADGIMVARGDLGVEMPLEEVPIVQKRLILRCIAAGKPVITATQMLESMVQNPSPTRAEASDVANAIFDGTDAVMLSAETAAGAYPVEAVAMMARIAKAVESSPEFLQKLNVLRPAPTPTTQDAIAQAADDVVEAVGARAIVVFTATGGSARRIARTRPQVPILALTPNPEVRNQLALVWGVYPHLAPDPQDTDDMVRIALREVKALGLAQVGDRVVIAAGVPFGVRGTTNLIRVERVG” the value was “soluble”; for “MPPIPEPEIDPVLKELLYAYSVISRARRYAGMAGVPLPLSLTEINEYLATHPVLIERDEFEAVIFALDDQYFQEQCV”, “not soluble”.

“MPPLECDVLVIGSGASGLAAAVTAAHHGLTVVVAEKASQLGGTSAWSGGWLWIPRNPLAIAEGIVEADDAPERYLRAQTHTRELDPRQRAFLRHGPEMVAFFEQHTAVQFQCGSRMPDMREGDGSARGGRSLCALPYDGRRLGPWLHKLRPPLDIVSLAGMGIAGGADMAAFFNATRSPKAALHVGKRLLRHGRDLLLHRRGLHLVNGNALVARLLRSALDRGVTLLTEKAASRLLLCEERVNGALFADGQAIYARRGVVLACGGFPHDRQRISQLMPHAPDGDQHYSAAPRENSGDGLRLGEQAGGRVSAAGAHGGAWAPVSQVPRRNGHFGHFPHLIDRAKPGFIAVRRDGRRFVNEADCYHDFMNALFAATPQAEQPEAWLICDHAAQRRYGIGWAKPFPFPTRFYQRSGYLHSGATLAQLAQRCGIDAEQLQRTVEGFNHHAAQGEDPTFLRGASAYNRAQGDPQQVPNPSLRPLLKGPFHAVKLLPGSLGTFAGLDTDASARVLDHAGQPIPGLFAVGNDMHSVMGGYYPSGGITLGPGMTFGYLAGRALSAGCADHLEHHHHHH”: the “soluble on expression in E. coli” value is on record as “not soluble”. For “MPPPGIPPPFPPMGLPPMSQRPPAIPPMPPGILPPMLPPMGAPPPLTQIPGMVPPMMPGMLMPAVPVTAATAPGADTASSAVAGTGPPRALWSEHVAPDGRIYYYNADDKQSVWEKPSVLKSKAELLLSQCPWKEYKSDTGKPYYYNNQSKESRWTRPKDLDDLEVLVKQEAAGKQQQQLPQTLQPQPPQPQPDPPPVPPGPTPVPTGLLEPEPGGSEDCDVLEATQPLEQGFLQQLEEGPSSSGQHQPQQEEEESKPEPERSGLSWSNREKAKQAFKELLRDKAVPSNASWEQAMKMVVTDPRYSALPKLSEKKQAFNAYKAQREKEEKEEARLRAKEAKQTLQHFLEQHERMTSTTRYRRAEQTFGELEVWAVVPERDRKEVYDDVLFFLAKKEKEQAKQLRRRNIQALKSILDGMSSVNFQTTWSQAQQYLMDNPSFAQDHQLQNMDKEDALICFEEHIRALEREEEEERERARLRERRQQRKNREAFQTFLDELHETGQLHSMSTWMELYPAVSTDVRFANMLGQPGSTPLDLFKFYVEELKARFHDEKKIIKDILKVNTAFEDFAHVISFDKRAAALDAGNIKLTFNSLLEKAEAREREREKEEARRMRRREAAFRSMLRQAVPALELGTAWEEVRERFVCDSAFEQITLESERIRLFREFLQVLEQTECQHLHTKGRKHGRKGKKHHHKRSHSPSGSESEEEELPPPSLRPPKRRRRNPSESGSEPSSSLDSVESGGAALGGRGSPSSHLLGADHGLRKAKKPKKKTKKRRHKSNSPESETDPEEKAGKESDEKEQEQDKDRELQQAELPNRSPGFGIKKEKTGWDTSESELSEGELERRRRTLLQQLDDHQ” the value was “soluble”; for “MPPPTNQFKHDNIPLQTQGCEINVLCVRNPRARRIKLSVDERGVRLILPPCADLDAGTRFLLEQRAWIETQMARYASGTAATIPLRRGETTALPLRDQQLPLHWHESRYTRLELDAHGLQFYITTHTNDNTLRHTLREFYEVQARVDISDWLRKYLPGLPRPPTRVRLKPMSSQWGSLATAGHMALDLALVLGRPSAFEYVVVHELCHLIQANHSPAFWREVECRFPLWREERDYFHLKGRILKAQLRRLLQTELEHHHHHH”, “not soluble”. As to “MPPQKYHCNVCAQDITRSIHIRCVECVDFDLCIPCFTSGASLGTHHPSHPYRIIETNSYPIFDENWGADEELLLIDACETLGLGNWADIADYVGNARTKEECRDHYLKTYIESDCYPLASVELPGPVDRIAFAARKRARIEAFQPPPIIPQKPLASTPQCHEIQGYMPGRLEFDQEYMNEAELPIKDMNFDDDLHESAKHEMQLKLTMLNIYNSRLTRRAVRKQTIFNHNLLDYRRLQANEKRMSKEERNLLNKTKAFARLLTGPDYQKFVNSYHEQITLKKQISDLQEWRQMGLTTLEQGHKYERDKTQKFLLSKASASYDKQLRHVKSFNQTTSAPFQVRDIQKIVPRKPATPTMFSASADRQLLSEDEQALCSKLQIFPKPFLALKFALISASLTSKKPFQKTDAVNLFKHLDANKVEQVYDFFHNARWIGAPT”, the “soluble on expression in E. coli” value is listed as “soluble”. For “MPPYFSPKSEAPICGYCQLTFSQTGSMTRHRDRLHTKNHTCLICVSNCEGAPILGESIKKHLQHAHGYVDVQSCSCCHWIFENKIQLRTHLDAMKATGQPGDEVVLAKGTFAPGTLSQAAILQSKAYSANRQQKCQQSLKVDSGGFNDLSETQLKFILDNYSQIVGELESPNPKISGCRKRKCGMTIQHVLRDDDFKKIELC”, the “soluble on expression in E. coli” value is “not soluble”. For “MPQFTTARRARHRAEQMFALVADVEKYPQFLPMCEALSIRSRKERDGKTLLIADMTVGYKLIRETFTSQVLLKPDENIIDVKYIDGPFRYLDNRWTFRPTDGGAQCDVEFFIDYEFKSRTLGLLMGTMFDLAFKKFSEAFEKRADQIYGLGELEHHHHHH” the value was “soluble”; for “MPQNEHIELHRKRHGRRLDHEERQRKKLARAAHDRSQMAKTLRGHKAKLYHKKRYSEKVEMRKLLKQHEEKDQKNTVEQPDKGAVPAYLLDRQQQTSGTVLSNMIKQKRKQKAGKFNVPIPQVRAVSDAEAFKVVKTGKTNRKGWKRMVTKVTFVGESFTRKPAKFERFIRPMGLRFKKAHVTHPELQTTFHLPIVGVKKNPSSQMYTSLGVITKGTILEVNVSELGMVTQGGKVVWGKFAQVTNNPENDGCINAVLLI”, “not soluble”.
